These are literature values, as cited in patent US20260201008A1, “SECRETIN-DERIVED GLP1R SELECTIVE AGONISTS” (GUBRA A/S, priority 2023, published 2026).

For one data set, the target named is SCTR (Homo sapiens, UniProt P47872). Conditions: prior art value; cited from earlier work.
Another data set has as its target GLP1R (Homo sapiens, UniProt P43220). The note with it: prior art value; cited from earlier work.

Square brackets hold non-standard residues; d marks the D form. Ends that are not written are not given here. Aib = CC(C)(N)C(=O)O

Chain of GLP1R (P43220 24-463, species assumed): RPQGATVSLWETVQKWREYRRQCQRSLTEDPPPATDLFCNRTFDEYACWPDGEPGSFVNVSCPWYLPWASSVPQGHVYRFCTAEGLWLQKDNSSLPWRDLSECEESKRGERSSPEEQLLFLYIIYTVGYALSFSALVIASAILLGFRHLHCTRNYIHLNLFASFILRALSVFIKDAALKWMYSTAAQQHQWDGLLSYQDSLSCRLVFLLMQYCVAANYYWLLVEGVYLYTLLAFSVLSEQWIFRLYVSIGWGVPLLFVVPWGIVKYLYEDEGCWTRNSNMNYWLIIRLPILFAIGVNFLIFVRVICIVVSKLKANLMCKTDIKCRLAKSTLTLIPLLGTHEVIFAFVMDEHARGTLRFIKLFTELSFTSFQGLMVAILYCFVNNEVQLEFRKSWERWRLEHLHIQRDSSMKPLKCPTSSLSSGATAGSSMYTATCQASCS
Chain of SCTR (P47872 23-440, species assumed): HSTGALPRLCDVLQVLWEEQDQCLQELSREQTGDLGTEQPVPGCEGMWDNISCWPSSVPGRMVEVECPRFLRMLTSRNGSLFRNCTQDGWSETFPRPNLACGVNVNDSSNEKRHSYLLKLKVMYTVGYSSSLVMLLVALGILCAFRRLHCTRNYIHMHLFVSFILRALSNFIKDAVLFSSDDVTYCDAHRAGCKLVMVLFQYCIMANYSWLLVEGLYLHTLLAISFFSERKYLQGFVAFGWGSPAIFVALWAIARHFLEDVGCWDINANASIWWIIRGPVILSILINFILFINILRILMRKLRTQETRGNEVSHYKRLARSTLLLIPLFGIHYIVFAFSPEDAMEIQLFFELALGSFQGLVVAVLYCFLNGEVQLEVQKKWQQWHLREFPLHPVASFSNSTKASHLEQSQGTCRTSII

For “H-Aib-EGTFTSDLSRLLEGAALQRFIQWLV (H[Aib]EGTFTSDLSRLLEGAALQRFIQWLV-NH2; N-terminus assumed; SMILES CC[C@H](C)[C@H](NC(=O)[C@H](Cc1ccccc1)NC(=O)[C@H](CCCNC(=N)N)NC(=O)[C@H](CCC(N)=O)NC(=O)[C@H](CC(C)C)NC(=O)[C@H](C)NC(=O)[C@H](C)NC(=O)CNC(=O)[C@H](CCC(=O)O)NC(=O)[C@H](CC(C)C)NC(=O)[C@H](CC(C)C)NC(=O)[C@H](CCCNC(=N)N)NC(=O)[C@H](CO)NC(=O)[C@H](CC(C)C)NC(=O)[C@H](CC(=O)O)NC(=O)[C@H](CO)NC(=O)[C@@H](NC(=O)[C@H](Cc1ccccc1)NC(=O)[C@@H](NC(=O)CNC(=O)[C@H](CCC(=O)O)NC(=O)C(C)(C)NC(=O)[C@@H](N)Cc1c[nH]cn1)[C@@H](C)O)[C@@H](C)O)C(=O)N[C@@H](CCC(N)=O)C(=O)N[C@@H](Cc1c[nH]c2ccccc12)C(=O)N[C@@H](CC(C)C)C(=O)N[C@H](C(N)=O)C(C)C) [SEQ ID NO: 216, prior art SCTR/GLP1R co-agonist (Witteloostuijn, 2017)]”, the half-maximal effective concentration (EC50) is 1.3 nM in the data set with SCTR and 0.12 nM with GLP1R.
